In the Immune Epitope Database (IEDB):
pIC50, pKd: −log10 of the molar value.

Columns and labels:
HLA-A*23:01 = assay: IEDB peptide-MHC binding, purified MHC/competitive/radioactivity; filed as Kd, often an IC50 or EC50 that approximates it; ≥ and ≤ were set here for values at or beyond the usual limits of such assays
HLA-A*24:02 = assay: as above
HLA-A*02:01 [1] = assay: IEDB peptide-MHC binding, purified MHC/competitive/fluorescence; ≥ and ≤ were set here for values at or beyond the usual limits of such assays
HLA-A*02:01 [2] = assay: IEDB peptide-MHC binding, purified MHC/direct/fluorescence; filed as Kd, often an IC50 or EC50 that approximates it; ≥ and ≤ were set here for values at or beyond the usual limits of such assays
HLA-A*69:01 = assay: as above
HLA-B*08:01 = assay: IEDB peptide-MHC binding, purified MHC/competitive/radioactivity; filed as Kd, often an IC50 or EC50 that approximates it; ≥ and ≤ were set here for values at or beyond the usual limits of such assays
HLA-A*30:01 = assay: as above
HLA-A*01:01 [3] = assay: as above
HLA-A*11:01 [4] = assay: as above
HLA-A*01:01 [5] = assay: IEDB peptide-MHC binding, purified MHC/direct/fluorescence; filed as Kd, often an IC50 or EC50 that approximates it; ≥ and ≤ were set here for values at or beyond the usual limits of such assays
HLA-A*30:02 = assay: IEDB peptide-MHC binding, purified MHC/competitive/radioactivity; filed as Kd, often an IC50 or EC50 that approximates it; ≥ and ≤ were set here for values at or beyond the usual limits of such assays
HLA-A*26:01 = assay: as above
HLA-A*31:01 = assay: as above; settings: source organism: Vaccinia virus WR
HLA-A*33:01 = assay: as above; settings: source organism: Vaccinia virus WR
HLA-A*03:01 [6] = assay: as above; settings: source organism: Vaccinia virus WR
HLA-A*68:01 = assay: as above; settings: source organism: Vaccinia virus WR
HLA-A*03:01 [7] = assay: IEDB peptide-MHC binding, purified MHC/direct/fluorescence; filed as Kd, often an IC50 or EC50 that approximates it; ≥ and ≤ were set here for values at or beyond the usual limits of such assays; settings: source organism: Influenza A virus (A/tiger/Thailand/CU-T4/04(H5N1))
HLA-A*11:01 [8] = assay: as above; settings: source organism: Influenza A virus (A/tiger/Thailand/CU-T4/04(H5N1))
HLA-A*02:03 = assay: IEDB peptide-MHC binding, purified MHC/competitive/radioactivity; filed as Kd, often an IC50 or EC50 that approximates it; ≥ and ≤ were set here for values at or beyond the usual limits of such assays
[9] = source organism: Dengue virus 1 Brazil/97-11/1997
[10] = source organism: Dengue virus 3 Martinique/1243/1999
[11] = source organism: Zaire ebolavirus
[12] = source organism: Vibrio alginolyticus 12G01
[13] = source organism: Vaccinia virus WR
[14] = source organism: Dengue virus 2 Jamaica/1409/1983
[15] = source organism: Francisella tularensis subsp. tularensis FSC198
[16] = source organism: Dengue virus 4 Philippines/H241/1956
[17] = source organism: Sudan ebolavirus
[18] = source organism: Treponema pallidum

GWNDWQQVPF showed a pKd (HLA-A*23:01; [9]) of 5.85 and a pKd (HLA-A*24:02; [9]) of 5.76.
VLVHPQWVL showed a pIC50 (HLA-A*02:01 [1]; source organism: Homo sapiens) of 5.68.
With GVFEGIAVL the pKd (HLA-A*02:01 [2]; source organism: Mycobacterium tuberculosis variant bovis) was 7.81.
RYLEFEALGF showed a pKd (HLA-A*23:01; [10]) of 8.33 and a pKd (HLA-A*24:02; [10]) of 7.42.
LLMLCLHHA gave a pIC50 (HLA-A*02:01 [1]; [11]) of 6.39.
Sequence VVRGIDGGV has a pKd (HLA-A*02:01 [2]; [12]) of at most 4.70 and a pKd (HLA-A*69:01; [12]) of at most 4.70.
SVYIRPTSL showed a pKd (HLA-B*08:01; [13]) of 7.97.
Sequence MQKCYFSYK has a pKd (HLA-A*30:01; [13]) of 9.28.
Sequence SMFMSLLPA has a pKd (HLA-B*08:01; [13]) of 7.26.
With SITEAELTGY the pKd (HLA-A*01:01 [3]; [14]) was 6.41.
Work on MVLLTMKEK yielded a pKd (HLA-A*30:01; [9]) of 5.56 and a pKd (HLA-A*11:01 [4]; [9]) of 6.44.
With MFLITENKI the pKd (HLA-A*23:01; source organism: Dengue virus 1 Nauru/West Pac/1974) was 6.79.
In the case of NPDIVIYQY, the pKd (HLA-A*01:01 [5]; source organism: Human immunodeficiency virus 1) was at most 4.68.
Work on SILEYAKSI yielded a pKd (HLA-A*02:01 [2]; [15]) of 6.99 and a pKd (HLA-A*69:01; [15]) of 6.97.
Work on EKVDAIDGEY yielded a pKd (HLA-A*30:02; [14]) of 7.59 and a pKd (HLA-A*26:01; [14]) of 5.03.
Sequence LTEIASLPT has a pKd (HLA-A*01:01 [3]; [16]) of 5.83.
ETLLLLGLM was tested, and the pKd (HLA-A*26:01; [10]) was 6.88.
RRFRRPMSL showed a pKd (HLA-B*08:01; [13]) of 6.95.
Sequence MFKKRNLTI has a pKd (HLA-A*30:01; [10]) of 6.84, a pKd (HLA-B*08:01; [10]) of 7.80 and a pKd (HLA-A*23:01; [10]) of 6.32. It also gave a pKd (HLA-A*24:02; [10]) of 6.80.
Work on KTSSGRMPV yielded a pKd (HLA-A*30:01; [13]) of 8.71.
GVSTDIPSA gave a pIC50 (HLA-A*02:01 [1]; [17]) of 5.68.
With RFANALLAL the pKd (HLA-A*23:01; [10]) was 6.85 and the pKd (HLA-A*24:02; [10]) was 6.16.
Work on MRKTDWLPM yielded a pKd (HLA-B*08:01; [10]) of 7.46.
For VYPMSIPATL, the pKd (HLA-A*23:01; [9]) was 8.19 and the pKd (HLA-A*24:02; [9]) was 7.11.
Work on KTTFSLHYA yielded a pKd (HLA-A*30:01; source organism: Dengue virus 1 Singapore/S275/1990) of 7.84.
KRTSFFLWV showed a pIC50 (HLA-A*02:01 [1]; [11]) of at most 4.10.
In the case of RARVSQGAG, the pKd (HLA-A*30:01; [9]) was 6.71.
FGTNETEYL gave a pIC50 (HLA-A*02:01 [1]; [11]) of 4.56.
With GLLKKFEFL the pKd (HLA-B*08:01; [13]) was 7.33.
ENPYKTWAY was tested, and the pKd (HLA-A*26:01; [10]) was 5.53.
For YKKLKFRFI, the pKd (HLA-B*08:01; [13]) was 6.71.
In the case of VWEVEDYGF, the pKd (HLA-A*23:01; [10]) was 6.53.
VTEKDSPVNI was tested, and the pKd (HLA-A*01:01 [3]; [14]) was at most 4.39.
With KVRSNAALG the pKd (HLA-A*30:01; [14]) was 8.61.
Work on ASVKKDLISY yielded a pKd (HLA-A*01:01 [3]; [9]) of at most 4.42 and a pKd (HLA-A*30:02; [9]) of 7.71.
RARFIGGYI showed a pKd (HLA-A*30:01; [13]) of 9.58.
GIQRTVFFVL showed a pKd (HLA-B*08:01; [16]) of 5.18.
LAIPPTAGIL was tested, and the pKd (HLA-B*08:01; [9]) was 5.37.
Sequence TFKMRPMFA has a pKd (HLA-A*30:01; [9]) of 7.64.
KTLDISSFY showed a pKd (HLA-A*31:01) of 7.05, a pKd (HLA-A*33:01) of at most 4.38 and a pKd (HLA-A*03:01 [6]) of 7.72. The pKd (HLA-A*68:01) was 6.73, the pKd (HLA-A*30:01; [13]) was 7.63 and the pKd (HLA-A*11:01 [4]; [13]) was 8.19.
With KLRPRWLDA the pKd (HLA-A*30:01; [9]) was 7.65.
For SLLRNDVPM, the pKd (HLA-B*08:01; [10]) was 7.32.
With LARTAKVKN the pIC50 (HLA-A*02:01 [1]; [11]) was at most 3.67.
YSHGDIKAS gave a pIC50 (HLA-A*02:01 [1]; [13]) of at most 4.14.
In the case of NQNALVCGL, the pIC50 (HLA-A*02:01 [1]; [17]) was at most 3.91.
RYRSGFWII showed a pKd (HLA-A*30:01; [13]) of 8.06.
For NSPVFNYNK, the pKd (HLA-A*03:01 [7]) was at most 4.70 and the pKd (HLA-A*11:01 [8]) was 6.94.
Sequence TWKLARASF has a pKd (HLA-A*23:01; [9]) of 6.66 and a pKd (HLA-A*24:02; [9]) of 6.65.
With HLKHHKQCV the pKd (HLA-B*08:01; [13]) was 8.35.
For RGDLPVWLSY, the pKd (HLA-A*30:02; [9]) was 5.39.
FIRLKLTKL showed a pKd (HLA-B*08:01; [13]) of 6.87.
LLKATLLAV was tested, and the pKd (HLA-B*08:01; [9]) was 7.90 and the pKd (HLA-A*02:03; [9]) was 10.52.
For EVDSFSLGI, the pKd (HLA-A*01:01 [3]; [9]) was 5.13.
NPGARNARL showed a pKd (HLA-B*08:01; [13]) of 8.21.
With IVDYVTAYG the pKd (HLA-A*01:01 [5]; [18]) was 5.60, the pKd (HLA-A*02:01 [2]; [18]) was 4.76 and the pKd (HLA-A*69:01; [18]) was 5.79.
In the case of HLKNSAENK, the pKd (HLA-A*30:01; [13]) was 6.06.
In the case of LLPPELSET, the pIC50 (HLA-A*02:01 [1]; source organism: Human alphaherpesvirus 1 strain 17) was 5.31.
For SYKVASAGI, the pKd (HLA-A*24:02; [16]) was 6.98.
Work on YTFFSYLMK yielded a pKd (HLA-A*31:01) of 5.40, a pKd (HLA-A*33:01) of 5.52 and a pKd (HLA-A*03:01 [6]) of 8.01. The pKd (HLA-A*68:01) was 9.09, the pKd (HLA-A*30:01; [13]) was 6.33 and the pKd (HLA-A*11:01 [4]; [13]) was 9.25.
For MLKRVRNRV, the pKd (HLA-B*08:01; [10]) was 7.73 and the pKd (HLA-A*02:03; [10]) was 7.84.
NYKERMVTF gave a pKd (HLA-A*23:01; [16]) of 7.00 and a pKd (HLA-A*24:02; [16]) of 7.71.
